Target: extracellular domain of the aFGF receptor (sFGFR)
Assay: ITC, aFGF and the extracellular domain of its receptor

aFGF, sequence (P05230 16-155): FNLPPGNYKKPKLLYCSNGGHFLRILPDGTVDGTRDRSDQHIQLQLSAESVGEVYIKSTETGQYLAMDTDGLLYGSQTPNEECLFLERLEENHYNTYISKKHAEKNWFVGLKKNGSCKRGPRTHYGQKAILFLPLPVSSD

Kd: 0.5 µM
Substance: aFGF
